Literature values, collected in publication PMC10480133.

Target: GRGDSPK peptide

Kd: 12.2 nM
Substance: Integrin αvβ3 (from UniProt P06756)
